Target: T1, Arabidopsis E2 ubiquitin-conjugating enzyme AtUbc30 (Arabidopsis, UniProt Q9FKT3 1-148)
T1 construct: AtUbc30, Arabidopsis E2 ubiquitin-conjugating enzyme, At5g56150; source: E. coli SoluBL21, purified (GSTrap Sepharose, PreScission cleavage, gel filtration)
Assay: pull-down; AtUbc30 (50 to 60 μM) with equimolar GST, wildtype or I234Y GST-AtRMR1-RING in the presence of GSTrap Sepharose; 30 mM Tris pH 7.5, 150 mM NaCl, 2 mM DTT; 4 h at 4 °C; eluted with 20 mM reduced glutathione; 15% SDS-PAGE, Coomassie blue
Details: both partners purified

T1 sequence (Q9FKT3 whole entry): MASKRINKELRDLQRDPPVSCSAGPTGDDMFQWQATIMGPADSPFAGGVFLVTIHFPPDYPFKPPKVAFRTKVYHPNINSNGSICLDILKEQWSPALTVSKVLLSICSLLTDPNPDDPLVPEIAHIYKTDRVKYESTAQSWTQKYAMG

- binding result: binds
B1: GST-tagged RING-H2 domain of Arabidopsis RMR isoform-1 (GST-AtRMR1-RING), wildtype (domain or fragment, UniProt Q9M622 206-283, looked up)
chain: RLDAKLVHTLPCFTFTDSAHHKAGETCAICLEDYRFGESLRLLPCQHAFHLNCIDSWLTKWGTSCPVCKHDIRTETMS
notes: AtRMR1 (receptor-homology-transmembrane-RING-H2 protein 1), Arabidopsis, At5g66160, RING-H2 domain, residues 206-283; The methods tell only the purification of the form with the GST tag cleaved; also called E3; source: E. coli SoluBL21 (pGEX-6p-1), recombinant

Source: paper PMC12552968, “The RING-finger domain of Arabidopsis RMR functions as an E3 ligase essential for post-Golgi trafficking” (The Journal of Biological Chemistry, 2025)
